# Source: patent US20240270821A1, “GIP/GLP1/GCG TRI-RECEPTOR AGONISTS AND USES THEREOF” (priority 2023, published 2024)
# B1: Example 608 (peptide)
# chain: YXQGTXTSDXSILLDKKAQXAFIEYLEEGGPSSGEPPPSGTEE
# modifications: non-natural residues, acylated Lys ((γGlu)2-C18 diacid), C-terminal amide; synthetic construct; SITE 2: note = 2-Aminoisobutyric Acid; SITE 6: note = alpha-methyl-2-fluoro-L-phenylalanine; SITE 10: note = 3-(4-Pyridyl)-L-alanine; SITE 17: note = Lysine is chemically modified through conjugation of the epsilon-amino group of the Lysine side chain with (gamma-Glu)2-CO-(CH2)1
# B2: Example 618 (peptide)
# chain: YXQGTXTSDXSILLDKKAQXAFIEYLEEGGPSSGAPPPSGSGE
# modifications: non-natural residues, C18 diacid acylation, C-terminal amide; synthetic construct; SITE 2: note = 2-Aminoisobutyric Acid; SITE 6: note = alpha-methyl-2-fluoro-L-phenylalanine; SITE 10: note = 3-(4-Pyridyl)-L-alanine; SITE 17: note = Lysine is chemically modified through conjugation of the epsilon-amino group of the Lysine side chain with (gamma-Glu)2-CO-(CH2)1
# B3: Example 609 (peptide)
# chain: YXQGTXTSDXSILLDKKAQXAFIEYLEEGGPSSGAPPPSGTEE
# modifications: non-natural residues (Aib, αMeF(2F), 4Pal); lipidated Lys; C-amide; synthetic construct; SITE 2: note = 2-Aminoisobutyric Acid; SITE 6: note = alpha-methyl-2-fluoro-L-phenylalanine; SITE 10: note = 3-(4-Pyridyl)-L-alanine; SITE 17: note = Lysine is chemically modified through conjugation of the epsilon-amino group of the Lysine side chain with (gamma-Glu)2-CO-(CH2)1
# B4: Example 628 (peptide)
# chain: YXQGTXTSDXSIXLDKKAQXAFIEYLEEGGPSSGEPPPEGTGE
# modifications: non-natural residues; lipidated Lys; C-terminal amide; synthetic construct; SITE 2: note = 2-Aminoisobutyric Acid; SITE 6: note = alpha-methyl-2-fluoro-L-phenylalanine; SITE 10: note = 3-(4-Pyridyl)-L-alanine; SITE 13: note = alpha-methyl-leucine; SITE 17: note = Lysine is chemically modified through conjugation of the epsilon-amino group of the Lysine
# B5: Example 625 (peptide)
# chain: YXQGTXTSDXSIXLDKKAQXAFIEYLEEGGPSSGEPPPSGEGE
# modifications: non-natural residues; lipidated Lys; C-terminal amide; synthetic construct; SITE 2: note = 2-Aminoisobutyric Acid; SITE 6: note = alpha-methyl-2-fluoro-L-phenylalanine; SITE 10: note = 3-(4-Pyridyl)-L-alanine; SITE 13: note = alpha-methyl-leucine; SITE 17: note = Lysine is chemically modified through conjugation of the epsilon-amino group of the Lysine
# B6: Example 619 (peptide)
# chain: YXQGTXTSDXSILLDKKAQXAFIEYLEEGGPSSGAPPPSGGGE
# modifications: non-natural residues; Lys acylated C18 diacid; C-terminal amide; synthetic construct; SITE 2: note = 2-Aminoisobutyric Acid; SITE 6: note = alpha-methyl-2-fluoro-L-phenylalanine; SITE 10: note = 3-(4-Pyridyl)-L-alanine; SITE 17: note = Lysine is chemically modified through conjugation of the epsilon-amino group of the Lysine side chain with (gamma-Glu)2-CO-(CH2)1
# B7: Example 624 (peptide)
# chain: YXQGTXTSDXSIXLDKKAQXAFIEYLEEGGPSSGEPPPSGTGE
# modifications: non-natural residues; lipidated Lys; C-terminal amide; synthetic construct; SITE 2: note = 2-Aminoisobutyric Acid; SITE 6: note = alpha-methyl-2-fluoro-L-phenylalanine; SITE 10: note = 3-(4-Pyridyl)-L-alanine; SITE 13: note = alpha-methyl-leucine; SITE 17: note = Lysine is chemically modified through conjugation of the epsilon-amino group of the Lysine
# B8: Example 621 (peptide)
# chain: YXQGTXTSDXSILLDKKAQXAFIEYLEEGGPSSGAPPPSGEGE
# modifications: non-natural residues, lysine acylation, C-terminal amide; synthetic construct; SITE 2: note = 2-Aminoisobutyric Acid; SITE 6: note = alpha-methyl-2-fluoro-L-phenylalanine; SITE 10: note = 3-(4-Pyridyl)-L-alanine; SITE 17: note = Lysine is chemically modified through conjugation of the epsilon-amino group of the Lysine side chain with (gamma-Glu)2-CO-(CH2)1
# B9: Example 606 (peptide)
# chain: YXQGTXTSDXXILLDXKAQXXFIEYLIEGGPSSGEPPPEGEEE
# modifications: Lys acylated (γ-Glu)2-C18 diacid; non-natural residues; C-terminal amide; synthetic construct; SITE 2: note = 2-Aminoisobutyric Acid; SITE 6: note = alpha-methyl-2-fluoro-L-phenylalanine; SITE 10: note = 3-(4-Pyridyl)-L-alanine; SITE 11: note = alpha-methyl-L-serine; SITE 16: note = L-ornithine; SITE 17: note = Lysine is chemically modified through conjugation of the epsi
# B10: Example 613 (peptide)
# chain: YXQGTXTSDXSIXLDXKAQXEFIEXLLEGGPSSGAPPPSGE
# modifications: Aib, αMeF(2F), 4Pal, Orn, (AEEA)2-γGlu-C18 diacid, amide; synthetic construct; SITE 2: note = 2-Aminoisobutyric Acid; SITE 6: note = alpha-methyl-2-fluoro-L-phenylalanine; SITE 10: note = 3-(4-Pyridyl)-L-alanine; SITE 13: note = alpha-methyl-leucine; SITE 16: note = L-ornithine; SITE 17: note = Lysine is chemically modified through conjugation of the epsil
# B11: Example 616 (peptide)
# chain: YXQGTXTSDXSIXLDXKAQXEFIEXLIEGGPSSGAPPPSGE
# modifications: non-natural residues; acylated Lys; C-terminal amide; synthetic construct; SITE 2: note = 2-Aminoisobutyric Acid; SITE 6: note = alpha-methyl-2-fluoro-L-phenylalanine; SITE 10: note = 3-(4-Pyridyl)-L-alanine; SITE 13: note = alpha-methyl-leucine; SITE 16: note = L-ornithine; SITE 17: note = Lysine is chemically modified through conjugation of the epsil
# B12: Example 615 (peptide)
# chain: YXQGTXTSDXSIXLDXKAQXEFIEXLLEGGPSSGAPPPSGE
# modifications: Aib, αMeF(2F), 4Pal, Orn, Me4Pal, αMeY; acylated lysine; amide; synthetic construct; SITE 2: note = 2-Aminoisobutyric Acid; SITE 6: note = alpha-methyl-2-fluoro-L-phenylalanine; SITE 10: note = 3-(4-Pyridyl)-L-alanine; SITE 13: note = alpha-methyl-leucine; SITE 16: note = L-ornithine; SITE 17: note = Lysine is chemically modified through conjugation of the epsil
# B13: Example 614 (peptide)
# chain: YXQGTXTSDXSIXLDXKAQXEFIEXLIEGGPSSGAPPPSGE
# modifications: non-natural residues, acylated Lys, C-terminal amide; synthetic construct; SITE 2: note = 2-Aminoisobutyric Acid; SITE 6: note = alpha-methyl-2-fluoro-L-phenylalanine; SITE 10: note = 3-(4-Pyridyl)-L-alanine; SITE 13: note = alpha-methyl-leucine; SITE 16: note = L-ornithine; SITE 17: note = Lysine is chemically modified through conjugation of the epsil
# Legend:
# Experiment in all cases: cell-based or functional assay
# hGLP-1R = hGLP-1R (Homo sapiens, UniProt P43220)
# [1] = target: T1, human GIP receptor (human) (UniProt P48546)
# T1 sequence (looked up): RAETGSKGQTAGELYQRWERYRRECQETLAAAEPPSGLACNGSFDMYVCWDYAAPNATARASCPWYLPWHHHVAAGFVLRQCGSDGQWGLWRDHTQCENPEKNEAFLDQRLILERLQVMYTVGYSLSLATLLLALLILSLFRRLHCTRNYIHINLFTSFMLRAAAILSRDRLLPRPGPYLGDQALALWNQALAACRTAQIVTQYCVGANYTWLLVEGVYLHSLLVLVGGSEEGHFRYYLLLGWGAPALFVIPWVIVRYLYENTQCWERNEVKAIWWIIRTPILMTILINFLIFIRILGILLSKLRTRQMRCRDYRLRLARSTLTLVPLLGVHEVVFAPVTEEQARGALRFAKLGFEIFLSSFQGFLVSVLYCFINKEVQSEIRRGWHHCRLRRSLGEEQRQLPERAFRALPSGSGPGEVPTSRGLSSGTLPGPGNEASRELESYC
# [2] = target: human glucagon receptor (human) (UniProt P47871)
# human glucagon receptor (human), sequence (P47871 26-477): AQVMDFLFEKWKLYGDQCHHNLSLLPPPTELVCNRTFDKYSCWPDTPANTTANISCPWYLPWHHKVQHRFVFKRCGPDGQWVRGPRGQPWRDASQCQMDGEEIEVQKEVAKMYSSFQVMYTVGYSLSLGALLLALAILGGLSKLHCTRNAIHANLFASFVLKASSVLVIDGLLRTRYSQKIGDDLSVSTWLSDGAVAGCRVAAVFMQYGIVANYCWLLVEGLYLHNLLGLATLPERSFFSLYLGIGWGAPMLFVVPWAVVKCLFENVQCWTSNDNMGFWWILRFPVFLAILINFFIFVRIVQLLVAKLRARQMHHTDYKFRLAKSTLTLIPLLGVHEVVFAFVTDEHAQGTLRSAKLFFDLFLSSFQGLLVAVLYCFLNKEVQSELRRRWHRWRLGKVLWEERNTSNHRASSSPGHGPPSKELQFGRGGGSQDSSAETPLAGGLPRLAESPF
# hGLP-1R, sequence (P43220 24-463): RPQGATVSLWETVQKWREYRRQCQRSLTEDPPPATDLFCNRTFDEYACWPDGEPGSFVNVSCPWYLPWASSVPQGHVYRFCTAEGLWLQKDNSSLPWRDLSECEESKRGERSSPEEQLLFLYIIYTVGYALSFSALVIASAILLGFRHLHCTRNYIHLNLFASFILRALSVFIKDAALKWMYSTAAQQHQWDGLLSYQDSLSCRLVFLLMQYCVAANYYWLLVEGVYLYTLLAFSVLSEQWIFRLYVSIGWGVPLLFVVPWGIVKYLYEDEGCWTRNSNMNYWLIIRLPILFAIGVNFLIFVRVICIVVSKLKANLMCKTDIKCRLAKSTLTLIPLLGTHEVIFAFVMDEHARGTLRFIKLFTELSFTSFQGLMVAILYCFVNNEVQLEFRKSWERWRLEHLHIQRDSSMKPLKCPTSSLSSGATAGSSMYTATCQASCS
binder,measurement,setting,value
B1,Relative cAMP EC50,hGLP-1R,1.87 nM
same,cAMP Rel EC50 (in the presence of 1% HSA),hGLP-1R,201 nM
same,Relative cAMP EC50,[1],0.124 nM
same,cAMP Rel EC50 (in the presence of 1% HSA),[1],8.51 nM
same,Relative cAMP EC50,[2],7.82 nM
same,cAMP Rel EC50 (in the presence of 1% HSA),[2],669 nM
B2,Relative cAMP EC50,hGLP-1R,1.53 nM
same,cAMP Rel EC50 (in the presence of 1% HSA),hGLP-1R,88.9 nM
same,Relative cAMP EC50,[1],0.0418 nM
same,cAMP Rel EC50 (in the presence of 1% HSA),[1],4.63 nM
same,Relative cAMP EC50,[2],5.57 nM
same,cAMP Rel EC50 (in the presence of 1% HSA),[2],691 nM
B3,Relative cAMP EC50,hGLP-1R,1.07 nM
same,cAMP Rel EC50 (in the presence of 1% HSA),hGLP-1R,121 nM
same,Relative cAMP EC50,[1],0.0784 nM
same,cAMP Rel EC50 (in the presence of 1% HSA),[1],6.19 nM
same,Relative cAMP EC50,[2],6.46 nM
same,cAMP Rel EC50 (in the presence of 1% HSA),[2],647 nM
B4,Relative cAMP EC50,hGLP-1R,1.11 nM
same,cAMP Rel EC50 (in the presence of 1% HSA),hGLP-1R,79.8 nM
same,Relative cAMP EC50,[1],0.0278 nM
same,cAMP Rel EC50 (in the presence of 1% HSA),[1],1.87 nM
same,Relative cAMP EC50,[2],7.47 nM
same,cAMP Rel EC50 (in the presence of 1% HSA),[2],651 nM
B5,Relative cAMP EC50,hGLP-1R,1.16 nM
same,cAMP Rel EC50 (in the presence of 1% HSA),hGLP-1R,72.1 nM
same,Relative cAMP EC50,[1],0.0291 nM
same,cAMP Rel EC50 (in the presence of 1% HSA),[1],1.81 nM
same,Relative cAMP EC50,[2],8.53 nM
same,cAMP Rel EC50 (in the presence of 1% HSA),[2],657 nM
B6,Relative cAMP EC50,hGLP-1R,0.992 nM
same,cAMP Rel EC50 (in the presence of 1% HSA),hGLP-1R,94 nM
same,Relative cAMP EC50,[1],0.0685 nM
same,cAMP Rel EC50 (in the presence of 1% HSA),[1],6.78 nM
same,Relative cAMP EC50,[2],6.34 nM
same,cAMP Rel EC50 (in the presence of 1% HSA),[2],819 nM
B7,Relative cAMP EC50,hGLP-1R,0.95 nM
same,cAMP Rel EC50 (in the presence of 1% HSA),hGLP-1R,63.4 nM
same,Relative cAMP EC50,[1],0.0222 nM
same,cAMP Rel EC50 (in the presence of 1% HSA),[1],1.17 nM
same,Relative cAMP EC50,[2],8.42 nM
same,cAMP Rel EC50 (in the presence of 1% HSA),[2],808 nM
B8,Relative cAMP EC50,hGLP-1R,1.28 nM
same,cAMP Rel EC50 (in the presence of 1% HSA),hGLP-1R,111 nM
same,Relative cAMP EC50,[1],0.0661 nM
same,cAMP Rel EC50 (in the presence of 1% HSA),[1],7.31 nM
same,Relative cAMP EC50,[2],6.81 nM
same,cAMP Rel EC50 (in the presence of 1% HSA),[2],901 nM
B9,Relative cAMP EC50,hGLP-1R,0.786 nM
same,cAMP Rel EC50 (in the presence of 1% HSA),hGLP-1R,53.1 nM
same,Relative cAMP EC50,[1],0.17 nM
same,cAMP Rel EC50 (in the presence of 1% HSA),[1],5.69 nM
same,Relative cAMP EC50,[2],5.01 nM
same,cAMP Rel EC50 (in the presence of 1% HSA),[2],474 nM
B10,Relative cAMP EC50,hGLP-1R,0.698 nM
same,cAMP Rel EC50 (in the presence of 1% HSA),hGLP-1R,81.6 nM
same,Relative cAMP EC50,[1],0.00925 nM
same,cAMP Rel EC50 (in the presence of 1% HSA),[1],0.791 nM
same,Relative cAMP EC50,[2],20.4 nM
same,cAMP Rel EC50 (in the presence of 1% HSA),[2],1410 nM
B11,Relative cAMP EC50,hGLP-1R,0.29 nM
same,cAMP Rel EC50 (in the presence of 1% HSA),hGLP-1R,28.9 nM
same,Relative cAMP EC50,[1],0.00727 nM
same,cAMP Rel EC50 (in the presence of 1% HSA),[1],0.467 nM
same,Relative cAMP EC50,[2],6.58 nM
same,cAMP Rel EC50 (in the presence of 1% HSA),[2],734 nM
B12,Relative cAMP EC50,hGLP-1R,0.575 nM
same,cAMP Rel EC50 (in the presence of 1% HSA),hGLP-1R,82.9 nM
same,Relative cAMP EC50,[1],0.00825 nM
same,cAMP Rel EC50 (in the presence of 1% HSA),[1],0.95 nM
same,Relative cAMP EC50,[2],3.93 nM
same,cAMP Rel EC50 (in the presence of 1% HSA),[2],697 nM
B13,Relative cAMP EC50,hGLP-1R,0.251 nM
same,cAMP Rel EC50 (in the presence of 1% HSA),hGLP-1R,33.2 nM
same,Relative cAMP EC50,[1],0.0065 nM
same,cAMP Rel EC50 (in the presence of 1% HSA),[1],0.597 nM
same,Relative cAMP EC50,[2],6.36 nM
same,cAMP Rel EC50 (in the presence of 1% HSA),[2],724 nM
